For series [1], the target named is T1, SahH (Psilocybe cubensis, UniProt A0ACB8GS59).
T1 sequence (A0ACB8GS59 1-430): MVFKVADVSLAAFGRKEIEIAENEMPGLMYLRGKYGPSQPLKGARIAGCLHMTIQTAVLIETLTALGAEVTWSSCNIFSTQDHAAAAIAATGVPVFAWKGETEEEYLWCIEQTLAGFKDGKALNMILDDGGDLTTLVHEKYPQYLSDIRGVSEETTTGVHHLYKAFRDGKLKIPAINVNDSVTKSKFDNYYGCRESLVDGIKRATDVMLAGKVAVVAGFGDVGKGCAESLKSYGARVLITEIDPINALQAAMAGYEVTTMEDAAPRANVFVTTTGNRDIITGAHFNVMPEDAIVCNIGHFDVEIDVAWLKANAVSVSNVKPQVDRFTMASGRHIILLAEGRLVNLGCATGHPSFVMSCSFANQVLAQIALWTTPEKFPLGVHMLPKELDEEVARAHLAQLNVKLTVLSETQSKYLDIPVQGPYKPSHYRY
The series can be described thus: inhibition of SAH hydrolysis. It is filed as biochemical. To be noted: hydrolytic direction.

Another series has as its target PsiM (Psilocybe cubensis, UniProt P0DPA9). The series can be described thus: UHPLC-MS quantification of baeocystin and psilocybin. It is filed as biochemical. To be noted: 3 mM SAM, 1 mM norbaeocystin, 1 μM PsiM, pH 8.0, 25 °C; competitive.
Series [2] concerns the target T1, SahH. The series can be described thus: Ellman's reagent. It is filed as biochemical. To be noted: hydrolytic direction, 100 μM NAD+, pH 7.8, 34 °C. On the technique in general: DTNB colorimetry detects thiols as they appear.
Substrate in series [3]: Nc1ncnc2c1ncn2[C@@H]1O[C@H](CO)[C@@H](O)[C@H]1O
The series can be described thus: purified protein.

Substrate in series [4]: Nc1ncnc2c1ncn2[C@@H]1O[C@H](COP(=O)(O)OP(=O)(O)OP(=O)(O)O)[C@@H](O)[C@H]1O
The series can be described thus: purified protein. To be noted: adenosine co-substrate, 10 mM MgCl2, pH 7.8, 30 °C.

Substrate in series [5]: N[C@@H](CCS)C(=O)O
The series can be described thus: purified protein. To be noted: synthetic direction, co-substrate adenosine.

The mark [6] stands for this setting: ATP co-substrate, 10 mM MgCl2, pH 7.8, 30 °C.
The mark [7] stands for this setting: synthetic direction, co-substrate L-homocysteine.

As usually defined, the Km is the substrate concentration at which the rate is half of its maximum. For orientation: kcat means the number of substrate molecules converted per active site and unit of time at saturation. One may read the kcat/Km as the second-order rate constant that governs catalysis at low substrate concentration.

As to `Nc1ncnc2[nH]cnc12` [Ade], at SahH [1] (tenfold excess over SAH), the inhibition entry is “to a lower extent—by tenfold excess of Ade over the SAH substrate”.
Regarding `Nc1ncnc2c1ncn2[C@@H]1O[C@H](CSCC[C@H](N)C(=O)O)[C@@H](O)[C@H]1O` [SAH], at PsiM, the “inhibition at 1-16 mM” value is “SAH competitively inhibited PsiM′s activity in a concentration‐dependent manner”. On SahH [2], the Km came to 57.2 µM.
`Nc1ncnc2c1ncn2[C@@H]1O[C@H](CO)[C@@H](O)[C@H]1O` [Ado]: the inhibition result against SahH [1] (product inhibition) is given as “SAH hydrolysis is strongly inhibited by elevated Ado concentrations”.

B1: AdoK (Psilocybe cubensis) (protein)
chain: MSAPSYSLFCMGNPLLDMQVRNGEQLLEKYGLKANDAILADEKQSEIYDELVKEHQVTYVAGGAAQNAARGAAYILPPGSVVYTGAVGDDELAEQLKAANKREGLDQVYQVKKGEKTGACAVVITGHHRSLVTTLRVAEKFEKSHLSSPEVAPLVENAKFFYIEGYFLTHGVESALELSSKASAAGKTFVMNLSAPFIAQFFGEQLNQILPHTDIIIGNEAEAEAWATAHNYASTTDLASIAKQIALLPKSNPARPRVVVFTHGAQSTVLVSADRPDEARVFAVDVLADDKIVDTNGAGDAFAGGFVGALVAGKDLEGAVLAGHALARQCVQQVGPQYPWPKVDIL
Consider B1, for which, in “purified protein [3]” (setting [6]), the Km worked out at 33.6 µM, the turnover number (kcat) worked out at 1400 s⁻¹ and the kcat/Km came to 4.2e+07 M⁻¹ s⁻¹. Besides, in the series “purified protein [4]”, the Km was found to be 11.6 µM, the catalytic constant (kcat) came to 1400 s⁻¹ and the specificity constant (kcat/Km) is 1.2e+08 M⁻¹ s⁻¹.

B2: SahH (Psilocybe cubensis) (protein)
chain: MVFKVADVSLAAFGRKEIEIAENEMPGLMYLRGKYGPSQPLKGARIAGCLHMTIQTAVLIETLTALGAEVTWSSCNIFSTQDHAAAAIAATGVPVFAWKGETEEEYLWCIEQTLAGFKDGKALNMILDDGGDLTTLVHEKYPQYLSDIRGVSEETTTGVHHLYKAFRDGKLKIPAINVNDSVTKSKFDNYYGCRESLVDGIKRATDVMLAGKVAVVAGFGDVGKGCAESLKSYGARVLITEIDPINALQAAMAGYEVTTMEDAAPRANVFVTTTGNRDIITGAHFNVMPEDAIVCNIGHFDVEIDVAWLKANAVSVSNVKPQVDRFTMASGRHIILLAEGRLVNLGCATGHPSFVMSCSFANQVLAQIALWTTPEKFPLGVHMLPKELDEEVARAHLAQLNVKLTVLSETQSKYLDIPVQGPYKPSHYRY
For B2, in “purified protein [5]”, the Michaelis-Menten constant (Km) worked out at 19.8 µM, the kcat is 1.8 s⁻¹ and the catalytic efficiency (kcat/Km) was determined as 91000 M⁻¹ s⁻¹. In addition, in the series “purified protein [3]” (setting [7]), the Km is 56.7 µM, the kcat came to 1.8 s⁻¹ and the kcat/Km worked out at 31000 M⁻¹ s⁻¹.

For the origin of these results see paper PMC7317531 (Chembiochem, 2020).
